In patent US20200199241A1 (Chugai, published 2020):
Positions count from the first letter of the chain named. Names and notes keep the numbering of the source.

B1: IL6R-2B171/IL6R-L (antibody, human IgG1)
heavy: QVQLQESGPGLVKPSETLSLTCAVSGHSISHDHAWSWVRQPPGEGLEWIGFISYSGITNYNPSLQGRVTISRDNSKNTLYLQMNSLRAEDTAVYYCARSLARTTAMDYWGEGTLVTVSSASTKGPSVFPLAPSSKSTSGGTAALGCLVKDYFPEPVTVSWNSGALTSGVHTFPAVLQSSGLYSLSSVVTVPSSSLGTQTYICNVNHKPSNTKVDKKVEPKSCDKTHTCPPCPAPELLGGDSVFLFPPKPKDTLMISRTPEVTCVVVDVSHEDPEVKFNWYVDGVEVHNAKTKPREEQYNSTYRVVSVLTVLHQDWLNGKEYKCKLSNKALPAPIEKTISKAKGQPREPQVYTLPPSRDELTKNQVSLTCLVKGFYPSDIAVEWESNGQPENNYKTTPPVLDSDGSFFLYSKLTVDKSRWQQGNVFSCSVMHEALHNHYTQESLSLSP
light: DIQMTQSPSSLSASVGDRVTITCRASQDISSYLNWYQQKPGKAPKLLIYYTSRLHSGVPSRFSGSGSGTDFTFTISSLQPEDIATYYCQQGNTLPYTFGQGTKVEIK
notes: IgG1; Fc variant of IL6R-B3; copies: 2 + 2
B2: IL6R-2B172/IL6R-L (antibody, human IgG1)
heavy: B1 heavy with L325M
light: B1 light
notes: as for B1
B3: IL6R-BP100/IL6R-L (antibody, human IgG1)
heavy: B1 heavy with S269A, L325V
light: B1 light
notes: as for B1
B4: IL6R-BP102/IL6R-L (antibody, human IgG1)
heavy: B1 heavy with S269Q, L325V
light: B1 light
notes: as for B1
B5: IL6R-PD042/IL6R-L (antibody, human IgG1)
heavy: B1 heavy with L236W, M254Y, L325V, N436Y, E441K
light: B1 light
notes: Alteration introduced into IL6R-F11; also called P238D/L234W; L234W/P238D
B6: IL6R-PD043/IL6R-L (antibody, human IgG1)
heavy: B1 heavy with L236Y, M254Y, L325V, N436Y, E441K
light: B1 light
notes: Alteration introduced into IL6R-F11; also called P238D/L234Y; L234Y/P238D
B7: IL6R-PD079/IL6R-L (antibody, human IgG1)
heavy: B1 heavy with G239A, M254Y, L325V, N436Y, E441K
light: B1 light
notes: Alteration introduced into IL6R-F11; also called P238D/G237A; G237A/P238D
B8: IL6R-PD081/IL6R-L (antibody, human IgG1)
heavy: B1 heavy with G239E, M254Y, L325V, N436Y, E441K
light: B1 light
notes: Alteration introduced into IL6R-F11; also called P238D/G237E; G237E/P238D
B9: IL6R-PD082/IL6R-L (antibody, human IgG1)
heavy: B1 heavy with G239F, M254Y, L325V, N436Y, E441K
light: B1 light
notes: Alteration introduced into IL6R-F11; also called P238D/G237F; G237F/P238D
B10: IL6R-PD086/IL6R-L (antibody, human IgG1)
heavy: B1 heavy with G239L, M254Y, L325V, N436Y, E441K
light: B1 light
notes: Alteration introduced into IL6R-F11; also called P238D/G237L; G237L/P238D
B11: IL6R-PD087/IL6R-L (antibody, human IgG1)
heavy: B1 heavy with G239M, M254Y, L325V, N436Y, E441K
light: B1 light
notes: Alteration introduced into IL6R-F11; also called P238D/G237M; G237M/P238D
B12: IL6R-PD094/IL6R-L (antibody, human IgG1)
heavy: B1 heavy with G239W, M254Y, L325V, N436Y, E441K
light: B1 light
notes: Alteration introduced into IL6R-F11; also called P238D/G237W; G237W/P238D
B13: IL6R-PD095/IL6R-L (antibody, human IgG1)
heavy: B1 heavy with G239Y, M254Y, L325V, N436Y, E441K
light: B1 light
notes: Alteration introduced into IL6R-F11; also called P238D/G237Y; G237Y/P238D
B14: IL6R-PD097/IL6R-L (antibody, human IgG1)
heavy: B1 heavy with S241D, M254Y, L325V, N436Y, E441K
light: B1 light
notes: Alteration introduced into IL6R-F11; also called P238D/S239D
B15: IL6R-F652/IL6R-L (antibody, human IgG1)
heavy: B1 heavy with M254Y, L325V, N436Y, E441K
light: B1 light
notes: IL6R-F11 with P238D (EU numbering)

Biological target: T1, FcγRIIb (human, UniProt P31994 43-217, limits assumed)
T1 construct: also called FcgRIIb; FcγIIB
T1 sequence: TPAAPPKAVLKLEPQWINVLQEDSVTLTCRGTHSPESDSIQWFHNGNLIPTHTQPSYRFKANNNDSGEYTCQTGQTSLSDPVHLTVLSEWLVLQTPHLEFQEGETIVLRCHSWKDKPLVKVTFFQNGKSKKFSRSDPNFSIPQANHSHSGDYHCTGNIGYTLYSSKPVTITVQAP
Assay: SPR (Biacore); KD for FcγRIIaH divided by KD for FcγRIIb of the same antibody
Text: Furthermore, KD(IIaR)/KD(IIb) and KD(IIaH)/KD(IIb) in the table respectively represent the value obtained by dividing the KD value of each variant for FcγRIIaR by the KD value of each variant for FcγRIIb, and the value obtained by dividing the KD value of each variant for FcγRIIaH by the KD value of each variant for FcγRIIb.

| Binder | KD(IIaH)/KD(IIb) |
| --- | --- |
| B1 | 31.8 |
| B2 | 27.3 |
| B3 | 42.6 |
| B4 | 67.6 |

Biological target: T1, FcγRIIb
Assay: SPR (Biacore), KD of IL6R-B3/IL6R-L divided by KD of the variant
Text: Furthermore, KD(IIaR)/KD(IIb) and KD(IIaH)/KD(IIb) in the table respectively represent the value obtained by dividing the KD value of each variant for FcγRIIaR by the KD value of each variant for FcγRIIb, and the value obtained by dividing the KD value of each variant for FcγRIIaH by the KD value of each variant for FcγRIIb. KD(IIb) of the parent polypeptide/KD(IIb) of the altered polypeptide refers to the value obtained by dividing the KD value of the parent polypeptide for FcγRIIb by the KD value of each variant for FcγRIIb.

| Binder | KD(IIb) of the parent polypeptide/KD(IIb) of altered polypeptide |
| --- | --- |
| B1 | 2.9 fold |
| B2 | 4 fold |
| B3 | 2.9 fold |
| B4 | 3.4 fold |

Biological target: T2, human FcγRIIb (human, UniProt P31994 43-217, limits assumed)
T2 construct: also called FcγIIB
T2 sequence: T1 sequence
Assay: SPR (Biacore), antibody captured, FcγR as analyte

| Binder | Kd |
| --- | --- |
| B5 | 2 µM |
| B6 | 1.6 µM |
| B7 | 3 µM |
| B8 | 3.6 µM |
| B9 | 3.4 µM |
| B10 | 2.6 µM |
| B11 | 2.9 µM |
| B12 | 2.3 µM |
| B13 | 2.3 µM |
| B14 | 1.4 µM |

Biological target: T3, human FcγRIa (human, UniProt P12314 16-292, limits assumed)
T3 construct: also called CD64
T3 sequence (P12314 16-292 limits assumed): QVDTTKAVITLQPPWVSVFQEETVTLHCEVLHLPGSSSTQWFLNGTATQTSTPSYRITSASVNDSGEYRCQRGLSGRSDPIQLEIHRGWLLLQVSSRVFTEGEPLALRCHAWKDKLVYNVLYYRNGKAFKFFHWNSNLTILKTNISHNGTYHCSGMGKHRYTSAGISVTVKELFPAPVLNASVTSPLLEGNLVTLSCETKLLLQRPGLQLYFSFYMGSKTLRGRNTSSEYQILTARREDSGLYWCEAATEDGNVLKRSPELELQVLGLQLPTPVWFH
Assay: SPR (Biacore), antibody captured, FcγR as analyte

| Binder | Kd |
| --- | --- |
| B5 | 0.063 µM |
| B6 | 0.075 µM |
| B7 | 0.14 µM |
| B8 | 0.34 µM |
| B9 | 0.052 µM |
| B10 | 0.12 µM |
| B11 | 0.052 µM |
| B12 | 0.036 µM |
| B13 | 0.093 µM |
| B14 | 0.0049 µM |

Biological target: T4, human FcγRIIa type R (human, UniProt P12318 36-217)
T4 construct: also called FcγRIIaR; FcγRIIa(R)
T4 chain: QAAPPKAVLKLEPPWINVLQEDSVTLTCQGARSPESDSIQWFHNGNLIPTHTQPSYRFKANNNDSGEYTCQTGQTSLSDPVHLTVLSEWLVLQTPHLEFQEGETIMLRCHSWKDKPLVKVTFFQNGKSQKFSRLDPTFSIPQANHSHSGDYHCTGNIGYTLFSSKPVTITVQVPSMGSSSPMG
Assay: SPR (Biacore), antibody captured, FcγR as analyte

| Binder | Kd |
| --- | --- |
| B5 | 16 µM |
| B6 | 26 µM |
| B7 | 32 µM |
| B8 | 38 µM |
| B9 | 14 µM |
| B10 | 18 µM |
| B11 | 22 µM |
| B12 | 7.2 µM |
| B13 | 7.9 µM |
| B14 | 3.5 µM |

Biological target: T2, human FcγRIIb
Assay: SPR (Biacore); KD for FcγRIIaH divided by KD for FcγRIIb of the same antibody

| Binder | KD(IIaH)/KD(IIb) |
| --- | --- |
| B5 | 9.5 |
| B6 | 14.4 |
| B7 | 7 |
| B8 | 7 |
| B9 | 4.7 |
| B10 | 7.1 |
| B11 | 7 |
| B12 | 5.2 |
| B13 | 6.4 |
| B14 | 14 |

Biological target: T1, FcγRIIb
Assay: SPR (Biacore); KD for FcγRIIaR divided by KD for FcγRIIb of the same antibody

| Binder | KD(IIaR)/KD(IIb) |
| --- | --- |
| B1 | 15 |
| B2 | 8 |
| B3 | 7.3 |
| B4 | 9.4 |

Biological target: T2, human FcγRIIb
Assay: SPR (Biacore); ratio against parent IL6R-F11/IL6R-L

| Binder | KD(IIb) of parent polypeptide/KD(IIb) of altered polypeptide |
| --- | --- |
| B5 | 3.4 |
| B6 | 4.2 |
| B7 | 2.3 |
| B8 | 1.9 |
| B9 | 2 |
| B10 | 2.7 |
| B11 | 2.4 |
| B12 | 2.9 |
| B13 | 2.9 |
| B14 | 5 |

Biological target: T2, human FcγRIIb
Assay: SPR (Biacore); KD for FcγRIIaR divided by KD for FcγRIIb of the same antibody

| Binder | KD(IIaR)/KD(IIb) |
| --- | --- |
| B5 | 8.1 |
| B6 | 15.9 |
| B7 | 10.5 |
| B8 | 10.6 |
| B9 | 4.1 |
| B10 | 6.9 |
| B11 | 7.7 |
| B12 | 3.1 |
| B13 | 3.4 |
| B14 | 2.6 |

Biological target: T2, human FcγRIIb
Assay: SPR (Biacore), binding amount relative to IL6R-F652/IL6R-L = 100

| Binder | relative binding activity |
| --- | --- |
| B15 | 100 |
| B5 | 106 |
| B6 | 112 |
| B7 | 101 |
| B8 | 101 |
| B9 | 108 |
| B10 | 112 |
| B11 | 109 |
| B12 | 122 |
| B13 | 124 |
| B14 | 139 |

Biological target: T4, human FcγRIIa type R
Assay: as above

| Binder | relative binding activity |
| --- | --- |
| B15 | 100 |
| B5 | 240 |
| B6 | 175 |
| B7 | 138 |
| B8 | 117 |
| B9 | 380 |
| B10 | 268 |
| B11 | 196 |
| B12 | 593 |
| B13 | 543 |
| B14 | 844 |

Biological target: T5, FcγRIIa type H (human, UniProt P12318 36-217)
T5 construct: also called FcγRIIaH; FcγRIIH
T5 sequence: T4 chain with R133H
Assay: SPR (Biacore), FcγR over captured antibody

| Binder | Kd |
| --- | --- |
| B1 | 34 µM |
| B2 | 21 µM |
| B3 | 46 µM |
| B4 | 61 µM |

Biological target: T6, FcγRIa (human, UniProt P12314 16-292, limits assumed)
T6 construct: also called FcgRIa; CD64
T6 sequence (P12314 16-292 limits assumed): as the sequence (P12314 16-292 limits assumed) above
Assay: SPR (Biacore), FcγR over captured antibody

| Binder | Kd |
| --- | --- |
| B1 | 0.0091 µM |
| B2 | 0.003 µM |
| B3 | 0.0011 µM |
| B4 | 0.0082 µM |

Biological target: T7, FcγRIIIa type V (human, UniProt P08637 17-208, limits assumed)
T7 construct: also called FcγRIIIaV; FcgRIIIaV
T7 sequence (P08637 other isoform, or with tags, fused parts or gaps limits assumed): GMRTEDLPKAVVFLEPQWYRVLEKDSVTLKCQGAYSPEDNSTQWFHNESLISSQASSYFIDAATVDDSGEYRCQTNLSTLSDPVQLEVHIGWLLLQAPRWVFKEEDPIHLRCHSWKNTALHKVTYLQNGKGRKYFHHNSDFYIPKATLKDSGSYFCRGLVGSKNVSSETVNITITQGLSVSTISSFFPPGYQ
Assay: SPR (Biacore), FcγR over captured antibody

| Binder | Kd |
| --- | --- |
| B1 | 57 µM |
| B2 | 48 µM |
| B3 | 59 µM |
| B4 | 82 µM |

Biological target: T8, FcγRIIa type R (human, UniProt P12318 36-217)
T8 construct: also called FcγRIIaR; FcgRIIaR
T8 chain: T4 chain
Assay: SPR (Biacore), FcγR over captured antibody

| Binder | Kd |
| --- | --- |
| B1 | 16 µM |
| B2 | 6.1 µM |
| B3 | 7.8 µM |
| B4 | 8.4 µM |

Biological target: T1, FcγRIIb
Assay: SPR (Biacore), FcγR over captured antibody

| Binder | Kd |
| --- | --- |
| B1 | 1.1 µM |
| B2 | 0.77 µM |
| B3 | 1.1 µM |
| B4 | 0.9 µM |
